Data from article PMC4895442, “Geometrical assembly of ultrastable protein templates for nanomaterials” (Nature Communications, 2016).

B1: γ-prefoldin (γPFD), wild type (natural protein, Methanocaldococcus jannaschii, UniProt Q58064 1-147, looked up)
chain: MVNEVIDINEAVRAYIAQIEGLRAEIGRLDATIATLRQSLATLKSLKTLGEGKTVLVPVGSIAQVEMKVEKMDKVVVSVGQNISAELEYEEALKYIEDEIKKLLTFRLVLEQAIAELYAKIEDLIAEAQQTSEEEKAEEEENEEKAE
notes: γ-prefoldin (γPFD), filamentous prefoldin-family chaperone of the hyperthermophile Methanocaldococcus jannaschii; wild type; Assembles into filaments of variable length through the β-sheets X1 and X2; also called γPFD filaments; γPFD subunits

What was measured:
[1] = molecular target: TERM-foldon three-way connector (Methanocaldococcus jannaschii | bacteriophage T4) (UniProt P10104); assay: SDS-PAGE without heating; refolded three-way connector dialyzed against PBS, SDS loading buffer added, incubated at 25-100 °C for 5 min, 10-20% gradient SDS-PAGE; the foldon trimer resists SDS
[2] = molecular target: the molecule itself; assay: negative-stain TEM; proteins refolded together at varying molar ratios, diluted in PBS to 20 μg/ml, on carbon/formvar grids, 2% uranyl acetate

Molecule	stoichiometry N [1]	binding result [2]
TERM-foldon three-way connector (from UniProt P10104 2-81)	3	
B1		binds
